# Results published in patent US8008452B2, “Phosphorylated Ndr kinase” (Novartis Forschungesstiftung, Zweigniederlassung Friedrich …, priority 2002, dated 2011).
# Legend:
# [1] = tested on: GST-NDR1; assay: Immunodetection of GST-NDR1 phosphorylated on Ser281 or Thr444 after in vitro autophosphorylation; type: biochemical, human; conditions: in vitro autophosphorylation with or without Ca2+/S100B
# Procedure: Either 1 microgram GST-NDR1 or HA-NDR1 immunoprecipitated from 100 microgram COS-1 detergent extracts as described above was separated on 10% SDS-PAGE and immunoblotted 2 h at RT or overnight at 4° C. with anti-Ser281P antisera (1:1000) in the presence of 50 microg/ml competing unphosphopeptide or anti-Thr444P purified antibody (1:500). Both antibodies were detected with horseradish peroxidase-conjugated donkey anti-rabbit Ig antibody (Amersham biosciences) and developed by ECL (chemiluminescence; Amersham Pharmacia Biotech).
# To reliably quantify the effect of S100B on NDR1 phosphorylation status, rabbit polyclonal antibodies were raised against phosphoepitopes comprising Ser281 or Thr444. GST-NDR1 mutants were treated essentially as described in Example 2 and detected either with anti-NDR1_C-term antiserum or polyclonal antibodies recognising NDR1 phosphorylated on Ser281 or Thr444.
# [2] = target: T1, NDR2 (Homo sapiens, UniProt Q9Y2H1); assay: NDR2 specific kinase activity in vitro with Ca2+/S100B; type: biochemical; conditions: concentration dependent
# T1 construct: made in house; host or cells: E. coli (inferred from b139 and b74)
# T1 sequence (Q9Y2H1 whole entry, one chain of several): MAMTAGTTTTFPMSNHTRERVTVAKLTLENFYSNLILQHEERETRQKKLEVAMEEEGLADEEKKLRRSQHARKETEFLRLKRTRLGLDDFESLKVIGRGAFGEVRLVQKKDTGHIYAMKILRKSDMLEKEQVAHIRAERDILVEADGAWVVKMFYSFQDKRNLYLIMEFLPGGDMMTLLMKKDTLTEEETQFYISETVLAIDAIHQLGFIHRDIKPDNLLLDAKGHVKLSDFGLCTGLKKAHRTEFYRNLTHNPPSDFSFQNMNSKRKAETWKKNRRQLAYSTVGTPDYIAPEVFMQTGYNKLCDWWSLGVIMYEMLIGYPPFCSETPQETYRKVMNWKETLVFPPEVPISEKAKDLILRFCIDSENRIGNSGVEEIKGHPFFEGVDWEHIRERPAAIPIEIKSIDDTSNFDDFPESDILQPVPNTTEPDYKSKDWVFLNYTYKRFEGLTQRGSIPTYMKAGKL
# Procedure: (§1) All other procedures (including bacterial expression, kinase assays, immunodetection and mass spectrometry) were carried out essentially as described in the Methodology section above.
# (§2) The sequence conservation between NDR1 and NDR2 also encompasses the previously defined S100 binding domain of NDR1. Therefore, the in vitro effect of Ca2+/S100B on NDR2 activity was measured in a time and concentration dependent manner. Ca2+/S100B increases the rate of NDR2 autophosphorylation by ˜2-fold after 4 hours of incubation, as measured by mass spectrometry anlaysis, and it stimulates the specific NDR activity in a concentration dependent manner up to ˜4-fold. […] After in vitro incubation of GST-NDR2 in the presence and absence of Ca2+/S100B, the proteins were digested with trypsin, and the resultant mixture was analysed by ESI-MS-MS in a −79 precursor scan, measuring the mass charge ratio (m/z) of all peptide species that liberate a single phosphate group after fragmentation. The identity of 5 NDR2 derived phosphopeptides could be determined in both samples, the GST-NDR2 and the GST-NDR2/Ca2+/S100B.
# [3] = target: T1, NDR2; assay: GST-NDR2 in vitro autophosphorylation with Ca2+/S100B; type: biochemical; conditions: after 4 hours of incubation
# Procedure: as §1, §2
# [4] = target: T2, GST-NDR1 (Homo sapiens, UniProt Q15208); assay: GST-NDR1 in vitro autophosphorylation, incorporated 32P by Cerenkov counting; type: biochemical; conditions: on both Ser281 and Thr444
# T2 construct: made in house; host or cells: E. coli BL21-DE3-pRep4
# Procedure: BL21-DE3-pRep4 E. coli strain was transformed with the pGEX-2T_NDR1 wild type or mutant plasmids. BL21-DE3 is a protease-deficient E. coli strain and pRep4 is a Laclq repressor-bearing plasmid both available commercially. Optionally, if desired, an E. coli strain comprising GroESL can be used, which expresses a chaperone protein that stabilizes the kinase. Mid-logarithmic phase cells were induced with 0.5 mM isopropyl beta-D-thiogalactopyranoside (IPTG) for 4 hours at 30° C. Bacteria were lysed using a French press in the presence of 1 mg/ml lysosyme, and the fusion proteins were purified on glutathione-agarose (Amersham Pharmacia Biotech) as described by the manufacturers. Recombinant proteins were assayed for kinase activity as described below and autophosphorylation was determined after SDS-PAGE separation either by Cerenkov counting or by exposure to a PhosphorImager screen followed by analysis with ImageQuant software (Molecular Dynamics).
# In brief, 1 microgram of purified GST-NDR1 (in solution ˜0.5 microM) wild type, kinase dead (K118A), and alanine mutants of phosphorylation residues Thr74, Ser281, and Thr444 were autophosphorylated for 2 hours in vitro without further additions or in the presence of 1 mM CaCl2 and 10 microM bovine S100B. Proteins were visualized on SDS gels using Coomassie Blue R-350 stained SDS-PAGE gel, and [gamma-^32P]ATP-labelled proteins were visualized by autoradiography of the gels developed on a Phosphorimager screen. The amount of incorporated ^32P was quantified by Cerenkov counting.
# Target sequence in this assay (Q15208 2-465): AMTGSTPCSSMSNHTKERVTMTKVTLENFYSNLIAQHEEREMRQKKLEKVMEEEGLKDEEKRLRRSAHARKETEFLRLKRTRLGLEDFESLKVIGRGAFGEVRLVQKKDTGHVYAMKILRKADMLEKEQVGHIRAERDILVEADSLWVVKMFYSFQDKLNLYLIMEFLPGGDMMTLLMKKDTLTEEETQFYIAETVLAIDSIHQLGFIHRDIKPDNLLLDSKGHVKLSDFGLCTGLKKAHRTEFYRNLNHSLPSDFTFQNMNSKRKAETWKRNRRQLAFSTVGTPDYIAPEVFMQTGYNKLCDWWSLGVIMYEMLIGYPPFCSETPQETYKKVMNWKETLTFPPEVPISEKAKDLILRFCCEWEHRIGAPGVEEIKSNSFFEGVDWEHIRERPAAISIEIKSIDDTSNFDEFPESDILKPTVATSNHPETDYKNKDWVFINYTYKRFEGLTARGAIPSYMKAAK
# [5] = target: T2, GST-NDR1; assay: GST-NDR1 kinase assay (peptide kinase assay); type: biochemical
# Procedure: 1 microgram of purified recombinant GST-NDR1 wild type and mutants (without further treatment or autophosphorylated for 2 h in the presence or absence of 1 mM CaCl2 and […] (Sigma)) were assayed in 20 microliter of reaction mixture containing 20 mM Tris-HCl pH 7.5, 10 mM MgCl2, 1 mM DTT, 100 microM [gamma-^32P]ATP (˜0.5 microCi/microliter), and 1 mM NDR1 substrate peptide ([…]; SEQ ID NO:22). After 30 mins incubation at 30° C., reactions were stopped with 50 mM EDTA, and 10 microliters of reaction mixture were spotted onto 2 cm^2 squares of P81 phosphocellulose paper (Whatman). These were subsequently washed for 4×5 min and 3×20 min in 1% phosphoric acid and once in acetone before counting in a liquid scintillation counter. One unit of NDR1 activity was defined as the amount which catalyses the phosphorylation of 1 nmol peptide substrate in 1 min.
# Specific activity of GST-NDR1 mutants was also measured by a peptide kinase assay as described above. For this purpose, 1 microgram of purified GST-NDR1 wild type and alanine mutants were left without further treatment or autophosphorylated for 2 h in the presence or absence of 1 mM CaCl2 and […].
# Target sequence in this assay (Q15208 whole entry): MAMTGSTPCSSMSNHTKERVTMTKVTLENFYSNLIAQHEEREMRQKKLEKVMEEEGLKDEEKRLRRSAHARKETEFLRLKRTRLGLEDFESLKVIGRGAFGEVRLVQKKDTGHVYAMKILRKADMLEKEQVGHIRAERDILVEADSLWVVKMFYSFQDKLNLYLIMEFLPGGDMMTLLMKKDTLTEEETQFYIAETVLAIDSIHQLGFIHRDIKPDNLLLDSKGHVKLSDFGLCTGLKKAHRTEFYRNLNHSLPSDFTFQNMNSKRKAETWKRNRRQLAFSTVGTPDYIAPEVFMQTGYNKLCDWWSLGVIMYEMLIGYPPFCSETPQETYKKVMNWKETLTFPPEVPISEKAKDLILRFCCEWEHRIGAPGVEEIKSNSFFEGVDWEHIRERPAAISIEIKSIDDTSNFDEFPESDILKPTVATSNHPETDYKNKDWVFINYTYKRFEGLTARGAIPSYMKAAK
# [6] = tested on: HA-NDR1; assay: HA-NDR1 kinase assay on 12CA5 immunoprecipitates from transfected, treated COS-1 cells; type: cell-based, human; conditions: COS1 cells cotransfected with HA-NDR1, treated with OA; versus empty vector
# Procedure: In some experiments, the cells were treated for 60 min with 1 microM okadaic acid in 0.1% N,N-dimethylformamide (DMF) (Alexis Corp.), 50 microM BAPTA-AM (1,2-bis (o-aminophenoxy) ethane-N,N,N′,N′-tetraacetic acid tetra (acetoxy-methyl)ester) in 0.1% diimethylsulfoxide (DMSO; Sigma), or 20 microM thapsigargin in 0.1% DMSO (Alomone) 24 hours after transfection.
# Transfected and treated COS-1 cells were washed once with ice-cold PBS, and harvested by rubber policeman in 1 ml ice-cold PBS containing 1 mM Na3VO4 and 20 mM beta-glycerophosphate before lysis in 500 microliters of IP buffer (20 mM Tris-HCl pH 8.0, 150 mM NaCl, 1% Nonidet P-40, 10% glycerol, 1 mM Na3VO4, 20 mM beta-glycerolphosphate, 1 microM microcystin-LR, 50 mM NaF, 0.5 mM PMSF, 4 microM leupeptin, 1 mM benzamidine, and 1 tablet/10 ml IP of Complete protease inhibitors (Roche)). Lysates were centrifuged at 20 000 g for 20 min and triplicate aliquots (200 microg) of supernatant were precleared with protein A-Sepharose (Amersham Pharmacia Biotech) for 60 min and mixed subsequently for 3 h at 4° C. with 12CA5 antibody prebound to protein A-Sepharose (˜1 microg antibody bound to 2 microl beads). The beads were then washed twice with IP buffer, once for 10 min with IP buffer containing 1 M NaCl, once again for 10 min with IP buffer, and finally twice with 20 mM Tris-HCl pH 7.5 containing 4 microM leupeptin and 1 mM benzamidine. […] After 60 min incubation at 30° C., 15 microliters of supernatant were removed, and phosphate incorporation into the substrate peptide determined as described for GST-NDR1 above. […]
# To test whether hMOB1 plays a role in NDR activation, myc-hMOB1 or the empty vector was cotransfected with HA-NDR1 in COS1 cells and treated with OA. […] The reactions were resolved on a 10% SDS PAGE and the radioactivity visualised by using a phosphoimager.
# [7] = target: T3, HA-NDR (Homo sapiens, UniProt Q15208); assay: Autophosphorylation of immunoprecipitated HA-NDR with added GST-MOB or GST; type: biochemical; conditions: added to HA-NDR kinase reactions; GST as control
# T3 construct: expressed in transfected cells; host or cells: COS-1 (HA-NDR1)
# T3 sequence (Q15208 whole entry, one chain of several): as the sequence (Q15208 whole entry) above
# Procedure: To test whether hMOB1 plays a role in NDR activation, myc-hMOB1 or the empty vector was cotransfected with HA-NDR1 in COS1 cells and treated with OA. 12CA5 immunoprecipitates were then assayed using the peptide kinase assay for HA-NDR kinase activity. […] GST-MOB and GST respectively was added to immunoprecipitated HA-NDR and kinase reaction were performed. The reactions were resolved on a 10% SDS PAGE and the radioactivity visualised by using a phosphoimager.
molecule,measurement,setting,value
"S100B: bovine S100B, EF-hand Ca2+-binding protein, added with 1 mM CaCl2 (protein) SELEKAVVALIDVFHQYSGREGDKHKLKKSELKELINNELSHFLEEIKEQEVVDKVMETLDSDGDGECDFQEFMAFVAMITTACHEFFEHE",phosphorylation of GST-NDR1 on Ser281 and Thr444 (phosphospecific antibodies),[1],enhance phosphorylation on both Ser281 and Thr444
same,stimulation of specific NDR activity (NDR2),[2],~4 fold
same,increase of the rate of NDR2 autophosphorylation,[3],~2 fold
same,increase in autophosphorylation of wild-type GST-NDR1 on addition of S100B,[4],~2 fold
same,increase in kinase activity of wild-type GST-NDR1 on addition of S100B,[5],~5 fold
"hMOB1: human MOB1 (GI: 11691898, SEQ ID NO:5), myc-tagged, cotransfected with HA-NDR1 (protein, left off: small tags and cut ends) MSFLFSSRSSKTFKPKKNIPEGSHQYELLKHAEATLGSGNLRQAVMLPEGEDLNEWIAVNTVDFFNQINMLYGTITEFCTEASCPVMSAGPRYEYHWADGTNIKKPIKCSAPKYIDYLMTWVQDQLDDETLFPSKIGVPFPKNFMSVAKTILKRLFRVYAHIYHQHFDSVMQLQEEAHLNTSFKHFIFFVQEFNLIDRRELAPLQELIEKLGSKDR",stimulation of OA stimulated NDR kinase activity by cotransfected myc-hMOB1,[6],two to threefold stimulation
"GST-hMOB1: GST fusion of hMOB1 added to HA-NDR kinase reactions (protein, left off: a dimerising Fc or GST, GST fusion of hMOB1 added to HA-NDR kinase reactions) MSFLFSSRSSKTFKPKKNIPEGSHQYELLKHAEATLGSGNLRQAVMLPEGEDLNEWIAVNTVDFFNQINMLYGTITEFCTEASCPVMSAGPRYEYHWADGTNIKKPIKCSAPKYIDYLMTWVQDQLDDETLFPSKIGVPFPKNFMSVAKTILKRLFRVYAHIYHQHFDSVMQLQEEAHLNTSFKHFIFFVQEFNLIDRRELAPLQELIEKLGSKDR",effect on NDR autophosphorylation activity,[7],stimulated NDR autophosphorylation activity
